Measured values published in US20130137856A1, “PROTEIN BINDING DOMAINS STABILIZING FUNCTIONAL CONFORMATIONAL STATES OF GPCRS AND USES THEREOF” (priority 2010, published 2013).

Target: β2AR truncated after amino acid 365 (β2AR-365) having an amino terminal Flag epitope tag, native, agonist-bound or unliganded (human) (UniProt P07550)
Experiment: cell-based or functional assay

High affinity state Ki of (-)-isoproterenol, [3H]-DHA competition binding, β2AR in HDL particles + Gs (β2AR alone: 107.5): 1.07 nM
fold increase of the affinity of isoproterenol: 100 fold
Substance: Gs heterotrimer
